Assay results as given in article doi:10.1101/2021.12.03.471045 (bioRxiv, 2021).

B1: mAb 58 Fab (Fab, V domains shown)
VH: QVQLVESGGGLVQPGRSLRLSCAASGFTFDDYAMHWVRQPPGKGLEWVSGVSWNSGTIGYADSVKGRFIISRDNAKNSLYLQMNSLKAEDTALYYCAREVGGTFGVLISREGGLDYWGQGTLVTVSS
VL: SYELTQPPSVSVAPGQTARITCGGNTIGSKSVHWYQQRPGQAPVLVVYDDSDRPSGIPERFSGSNSGNTATLTISRVEAGDEADYYCQVWDSSSDRVVFGGGTKLTVL
B2: mAb 158 Fab (Fab, V domains shown)
VH: EVQLLESGGDLIQPGGSLRLSCAASGVTVSSNYMSWVRQAPGKGLEWVSIIYPGGSTFYADSVKGRFTISRDNSKNTLYLQMHSLRAEDTAVYYCARDLGSGDMDVWGKGTTVTVSS
VL: DIVMTQSPSFLSASVGDRVTITCRASQGISSYLAWYQQKPGKAPKLLIQAASTLQSGVPSRFSGSGSGTEFTLTISSLQPEDFATYYCQQLNSYRYTFGQGTKVEIK

Biological target: early pandemic (Wuhan) SARS-CoV-2 RBD (SARS-CoV-2, UniProt P0DTC2)
Assay: crystal structure
Conditions: both partners purified

| Binder | binding result |
| --- | --- |
| B1 | binds |
| B2 | binds |
